Biological target: Heavy meromyosin (HMM)
Assay: far-Western, overlay or dot blot

fold binding against wild type [fold]	Binder
2	GST-tagged NH2-terminal region of slow myosin binding protein-C (Pro/Ala-rich motif, Ig C1 and M-motif), Y247H (domain or fragment) MPEPTKKEENEVPAPAPPPEEPSKEKEAGTTPAKDEEEVSPPSALPPGLGSRALERKDSDWTLVETPPGEEQAKQNANSQLSILFIEKPQGGTVKVGEDITFIAKVKAEDLLRKPTIKWFKGKWMDLASKAGKHLQLKETFERHSRVYTFEMQIIKAKDNFAGNYRCEVTYKDKFDSCSFDLEVHESTGTTPNIDIRSAFKRSGEGQEDAGELDFSGLLKRREVKQQEEEPQVDVWELLKNAKPSEHEKIAFQYGITDLRGMLKRLKRMRREEKKSAAFAKILD
3.5	GST-tagged NH2-terminal region of slow myosin binding protein-C (Pro/Ala-rich motif, Ig C1 and M-motif), E248K (domain or fragment) MPEPTKKEENEVPAPAPPPEEPSKEKEAGTTPAKDEEEVSPPSALPPGLGSRALERKDSDWTLVETPPGEEQAKQNANSQLSILFIEKPQGGTVKVGEDITFIAKVKAEDLLRKPTIKWFKGKWMDLASKAGKHLQLKETFERHSRVYTFEMQIIKAKDNFAGNYRCEVTYKDKFDSCSFDLEVHESTGTTPNIDIRSAFKRSGEGQEDAGELDFSGLLKRREVKQQEEEPQVDVWELLKNAKPSEYKKIAFQYGITDLRGMLKRLKRMRREEKKSAAFAKILD

Reference: publication PMC6685440
